# Data: patent publication US20090011000A1, “Inhibitors of Infection” (priority 2004, published 2009)
# Read-outs that look alike come from different tables or passages of the source.
# B1: chrtm5: gp41 residues 118 to 200 with N-terminal HIS-tag, TEV and Enterokinase protease sites, transmembrane region, five cytoplasmic residues (protein)
# chain: PCVKLTPLCVSLKCTDLKNDTNTNSSSGRMIMEKGEIKNCSFNISTSIRGKVQKEYAFFYKLDIIPIDNDTTSYKLTSCNTSV
# modifications: left off: small tags and cut ends
# notes: gp41 residues 118 to 200 with N-terminal HIS-tag, TEV and Enterokinase protease sites, transmembrane region, five cytoplasmic residues
# Experiments:
# HIVNL-4.3 = conditions: single round infection assay, TZM-b1 cells
# Excerpt: Two days later, infection cells were lysed and expression of luciferase activity measured.
# HIV Neutralization assay.
# These C-terminal peptides interact with the N-terminal coiled coil of gp41 thus blocking the refolding of gp41 into the six helical bundle structure ({115}, {116}. {117} and {39}).
# mAb 2F5 Fabs = assay: chrtm5/2F5 Fab complex, Superdex 200 gel filtration and SDS-PAGE; type: binding; conditions: gel filtration, peak analysed by SDS-PAGE
# Experimental: Chrtm5/2F5 Fab complexes were formed and purified on a Superdex 200 gel filtration column.
# Fractions corresponding to the major peak shown in FIG. 10 were separated by SDS-PAGE and stained with Coomassie brilliant blue.
# The oligomeric nature of chrtm5 was then further confirmed by purifying chrtm5 in complex with mAb 2F5 Fabs. This complex formation shifts the gel filtration profile to a larger molecular weight and chrtm5/2F5-Fab complexes elute at ˜12.5 ml (FIG. 10).
# mAb 4E10 = assay: Pull down assay of chrtm5 with mAb 4E10; type: binding
# Experimental: (§1) Lane 1—marker; Lane 2—control without antibody; Lane 3—mAb 2F5; and Lane 4—mAb 4E10.
# (§2) Pull down assays were then performed to determine whether chrtm5 interacts with the neutralizing antibodies 2F5 and 4E10.
# rabbits = assay: Immunization of rabbits with chrtm5 proteoliposomes, Western blot of serum; type: in vivo; conditions: chrtm5 incorporated into proteoliposomes, two rounds of immunization, preliminary
# Experimental: The oligomeric forms of CHRTM5 are indicated by numbers. The same pattern was obtained with serum dilutions of 1:50, 1:100 and 1:1000.
# Liposome preparation. Phospholipids were dissolved in chloroform and dried under a steam of nitrogen. Lipid films were resuspended in reconstitution buffer (25 mM HEPES pH 7.4, 0.1 M KCl). The turbid MLV suspension was passed 21 times through a polycarbonate membrane to give large unilamellar vesicles (LUV) with a diameter of 100 nm. LUVs were solubilized with 20 mM β-OG for one hour at 4° C., and afterwards incubated with protein for an additional hour. The proteoliposome solution was dialyzed with a Liposomat against reconstitution buffer for three hours at room temperature. Pure proteoliposomes were separated from excess protein by gel filtration through a Sephadex G-50 column and were collected by ultracentrifugation at 250000×g for one hour at 4° C. The pellet of pure proteoliposomes was resuspended in reconstitution buffer. The proteoliposomes were used in immunization studies to determine the immunogenicity in rabbits.
# chrtm5 can be incorporated into liposomes, which were used for immunization studies.
# mAb 2F5 = assay: Pull down assay of chrtm5 with mAb 2F5; type: binding
# Experimental: as §1, §2
Molecule,"IC50 (HIVNL-4.3; HIVNL-4.3, luciferase activity 2 days later) [µg/mL]","IC50 (HIVNL-4.3; HIVNL-4.3, molar value in brackets) [nM]",complex formation with mAb 2F5 Fabs (mAb 2F5 Fabs),pull down by antibody 4E10 (mAb 4E10),immunogenicity (rabbits),pull down by antibody 2F5 (mAb 2F5)
enfuvirtide,0.2,45,,,,
B1,,,the peak contains both chrtm5 and 2F5 Fab fragments,both antibodies pull down chrtm5,immunogenic in rabbits,both antibodies pull down chrtm5
